Residue numbers refer to the chain shown, from its start.
B1: MYT11181 (antibody, V domains shown)
VH: EVQLVESGGGLVQPGGSLRLSCTASGHDLSSYVMGWVRQAPGKGLEWVGYIYGGGGTYYATWARGRFTISRDTSKNTVYLQMNSLRAEDTAVYFCARAAADFYFNLWGQGTLVTVSS
VL: EIVMTQSPSTLSASVGDRVIITCQASQSISSYLAWYQQKPGKAPKLLIYDISDLASGVPSRFSGSGSGAEFTLTISSLQPDDFATYYCQSYYWISNSGAAFGQGTKLTVL
notes: HC variant of MYT9460, sub at HCV pos 27 (H1 02)
B2: MYT11254 (antibody, V domains shown)
VH: EVQLVESGGGLVQPGGSLRLSCTASHIDLSRYSMGWVRQAPGKGLEWVGIISYGGSTYYASWAKGRFTISRDTSKNTVYLQMNSLRAEDTAVYFCARVGYPGYSGYGYAFDAFDPWGQGTLVTVSS
VL: EIVMTQSPSTLSASVGDRVIITCQSSKSVYNDNWLSWYQQKPGKAPKLLIYGASTLASGVPSRFSGSGSGAEFTLTISSLQPDDFATYYCAGGYSSSSDNGFGQGTKLTVL
notes: MYT9792 variant, His at VH 26 (H1 01)
B3: MYT11260 (antibody, V domains shown)
VH: B2 VH with H26G, Y32H
VL: B2 VL
notes: MYT9792 variant, His at VH 32 (H1 07)
B4: MYT11268 (antibody, V domains shown)
VH: B2 VH with H26G, G54H
VL: B2 VL
notes: MYT9792 variant, His at VH 54 (H2 05)
B5: MYT11278 (antibody, V domains shown)
VH: B2 VH with H26G, K64H
VL: B2 VL
notes: MYT9792 variant, His at VH 64 (H2 15)
B6: MYT11269 (antibody, V domains shown)
VH: B2 VH with H26G, G55H
VL: B2 VL
notes: MYT9792 variant, His at VH 55 (H2 06)
B7: MYT11323 (antibody, V domains shown)
VH: B2 VH with H26G
VL: B2 VL with S58H
notes: MYT9792 variant, His at VL 58 (L2 07)
B8: MYT11334 (antibody, V domains shown)
VH: B2 VH with H26G
VL: B2 VL with G101H
notes: MYT9792 variant, His at VL 101 (L3 11)
B9: MYT11290 (antibody, V domains shown)
VH: B2 VH with H26G, Y106H
VL: B2 VL
B10: MYT11286 (antibody, V domains shown)
VH: B2 VH with H26G, G102H
VL: B2 VL
notes: MYT9792 variant, His at VH 102 (H3 07)
B11: MYT11262 (antibody, V domains shown)
VH: B2 VH with H26G, M34H
VL: B2 VL
notes: MYT9792 variant, His at VH 34 (H1 09)
B12: MYT11277 (antibody, V domains shown)
VH: B2 VH with H26G, A63H
VL: B2 VL
notes: MYT9792 variant, His at VH 63 (H2 14)
B13: MYT11319 (antibody, V domains shown)
VH: B2 VH with H26G
VL: B2 VL with S54H
notes: MYT9792 variant, His at VL 54 (L2 03)
B14: MYT11273 (antibody, V domains shown)
VH: B2 VH with H26G, Y59H
VL: B2 VL
notes: MYT9792 variant, His at VH 59 (H2 10)
B15: MYT11265 (antibody, V domains shown)
VH: B2 VH with H26G, I51H
VL: B2 VL
notes: MYT9792 variant, His at VH 51 (H2 02)
B16: MYT11317 (antibody, V domains shown)
VH: B2 VH with H26G
VL: B2 VL with G52H
notes: MYT9792 variant, His at VL 52 (L2 01)
B17: MYT11276 (antibody, V domains shown)
VH: B2 VH with H26G, W62H
VL: B2 VL
notes: MYT9792 variant, His at VH 62 (H2 13)
B18: MYT11299 (antibody, V domains shown)
VH: B2 VH with H26G, P115H
VL: B2 VL
B19: MYT11275 (antibody, V domains shown)
VH: B2 VH with H26G, S61H
VL: B2 VL
notes: MYT9792 variant, His at VH 61 (H2 12)
B20: MYT11298 (antibody, V domains shown)
VH: B2 VH with H26G, D114H
VL: B2 VL
B21: MYT11314 (antibody, V domains shown)
VH: B2 VH with H26G
VL: B2 VL with W34H
notes: MYT9792 variant, His at VL 34 (L1 11)
B22: MYT11270 (antibody, V domains shown)
VH: B2 VH with H26G, S56H
VL: B2 VL
notes: MYT9792 variant, His at VH 56 (H2 07)
B23: MYT11311 (antibody, V domains shown)
VH: B2 VH with H26G
VL: B2 VL with N31H
notes: MYT9792 variant, His at VL 31 (L1 08)
B24: MYT11320 (antibody, V domains shown)
VH: B2 VH with H26G
VL: B2 VL with T55H
notes: MYT9792 variant, His at VL 55 (L2 04)
B25: MYT11313 (antibody, V domains shown)
VH: B2 VH with H26G
VL: B2 VL with N33H
notes: MYT9792 variant, His at VL 33 (L1 10)
B26: MYT11274 (antibody, V domains shown)
VH: B2 VH with H26G, A60H
VL: B2 VL
notes: MYT9792 variant, His at VH 60 (H2 11)
B27: MYT11312 (antibody, V domains shown)
VH: B2 VH with H26G
VL: B2 VL with D32H
notes: MYT9792 variant, His at VL 32 (L1 09)
B28: MYT11329 (antibody, V domains shown)
VH: B2 VH with H26G
VL: B2 VL with S96H
notes: MYT9792 variant, His at VL 96 (L3 06)
B29: MYT11255 (antibody, V domains shown)
VH: B2 VH with H26G, I27H
VL: B2 VL
notes: MYT9792 variant, His at VH 27 (H1 02)
B30: MYT11338 (antibody, V domains shown)
VH: B2 VH with H26G
VL: B2 VL with N100A
notes: MYT9792 variant, Ala at VL 100 (L3 10)
B31: MYT11288 (antibody, V domains shown)
VH: B2 VH with H26G, S104H
VL: B2 VL
notes: MYT9792 variant, His at VH 104 (H3 09)
B32: MYT11336 (antibody, V domains shown)
VH: B2 VH with H26G
VL: B2 VL with D32A
notes: MYT9792 variant, Ala at VL 32 (L1 09)
B33: MYT11300 (antibody, V domains shown)
VH: B2 VH with H26G, F94Y
VL: B2 VL
B34: MYT11266 (antibody, V domains shown)
VH: B2 VH with H26G, S52H
VL: B2 VL
notes: MYT9792 variant, His at VH 52 (H2 03)
B35: MYT11301 (antibody, V domains shown)
VH: B2 VH with H26G, D28A
VL: B2 VL
notes: MYT9792 variant, Ala at VH 28 (H1 03)
B36: MYT11304 (antibody, V domains shown)
VH: B2 VH with H26G
VL: B2 VL with Q24H
notes: MYT9792 variant, His at VL 24 (L1 01)
B37: MYT11308 (antibody, V domains shown)
VH: B2 VH with H26G
VL: B2 VL with S28H
notes: MYT9792 variant, His at VL 28 (L1 05)
B38: MYT11318 (antibody, V domains shown)
VH: B2 VH with H26G
VL: B2 VL with A53H
notes: MYT9792 variant, His at VL 53 (L2 02)
B39: MYT11306 (antibody, V domains shown)
VH: B2 VH with H26G
VL: B2 VL with S26H
notes: MYT9792 variant, His at VL 26 (L1 03)

Target: T1, Human PTK7 Protein, His Tag, Acro Biosystems (human, UniProt Q13308 31-704)
T1 construct: Bought protein; also called CCK4; not shown: His tag
T1 sequence: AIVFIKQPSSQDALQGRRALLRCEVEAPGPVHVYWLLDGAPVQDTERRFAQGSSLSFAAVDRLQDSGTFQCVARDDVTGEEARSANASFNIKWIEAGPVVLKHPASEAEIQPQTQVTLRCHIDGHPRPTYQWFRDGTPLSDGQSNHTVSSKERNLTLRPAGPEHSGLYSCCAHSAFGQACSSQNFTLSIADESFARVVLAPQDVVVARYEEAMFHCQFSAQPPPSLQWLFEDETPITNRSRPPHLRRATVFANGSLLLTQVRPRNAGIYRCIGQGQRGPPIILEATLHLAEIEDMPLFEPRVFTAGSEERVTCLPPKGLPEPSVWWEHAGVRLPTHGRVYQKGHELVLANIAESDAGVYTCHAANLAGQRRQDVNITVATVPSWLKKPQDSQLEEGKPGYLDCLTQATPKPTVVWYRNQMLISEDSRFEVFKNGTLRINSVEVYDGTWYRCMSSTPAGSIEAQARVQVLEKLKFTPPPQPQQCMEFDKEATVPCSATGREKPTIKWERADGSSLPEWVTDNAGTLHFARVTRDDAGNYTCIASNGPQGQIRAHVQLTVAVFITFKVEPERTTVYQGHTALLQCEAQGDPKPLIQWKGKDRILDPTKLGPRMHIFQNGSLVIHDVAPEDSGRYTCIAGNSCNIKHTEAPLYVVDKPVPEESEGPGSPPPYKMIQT
Assay: BLI (Octet), antibody on anti-human Fc sensor, 50 nM PTK7, dissociation at pH 7.4 or 5.4; 2 = substantially similar binding relative to parent

Row | Binder | binding result
1 | B1 | binds

Target: T2, Human PTK7 Protein, His Tag, Acro Biosystems (human, UniProt Q13308 31-704)
T2 construct: Bought recombinant protein; also called CCK4; not shown: His tag
T2 sequence: T1 sequence
Assay: BLI, anti-human Fc capture, 50 nM PTK7; 2 = substantially similar binding relative to parent

Row | Binder | binding result
2 | B2 | binds
3 | B3 | binds
4 | B4 | binds
5 | B5 | binds
6 | B6 | binds
7 | B7 | binds
8 | B8 | binds
9 | B9 | binds
10 | B10 | binds
11 | B11 | binds
12 | B12 | binds
13 | B13 | binds
14 | B14 | binds
15 | B15 | binds
16 | B16 | binds
17 | B17 | binds
18 | B18 | binds
19 | B19 | binds
20 | B20 | binds

Row | Binder | binding result
21 | B21 | binds
22 | B22 | binds
23 | B23 | binds
24 | B24 | binds
25 | B25 | binds
26 | B26 | binds
27 | B27 | binds
28 | B28 | binds
29 | B29 | binds
30 | B30 | binds
31 | B31 | binds
32 | B32 | binds
33 | B33 | binds
34 | B34 | binds
35 | B35 | binds
36 | B36 | binds
37 | B37 | binds
38 | B38 | binds
39 | B39 | binds

Source: US20260209386A1 (MYTHIC THERAPEUTICS, published 2026)
